Measurements from article doi:10.1101/2022.04.15.488344 (bioRxiv, 2022).

Target: the molecule itself
Assay: crystal structure

B1: ERα ligand binding domain (LBD) (305–555) with a Y537S mutation (domain or fragment, UniProt P03372 305-555, looked up)
chain: SLALSLTADQMVSALLDAEPPILYSEYDPTRPFSEASMMGLLTNLADRELVHMINWAKRVPGFVDLTLHDQVHLLECAWLEILMIGLVWRSMEHPGKLLFAPNLLLDRNQGKCVEGMVEIFDMLLATSSRFRMMNLQGEEFVCLKSIILLNSGVYTFLSSTLKSLEEKDHIHRVLDKITDTLIHLMAKAGLTLQQQHQRLAQLLLILSHIRHMSNKGMEHLYSMKCKNVVPLSDLLLEMLDAHRLHAPTSR
- stoichiometry N: 2
